Test results published in patent publication US20240368243A1.

Key:
[1] = target: … (SEQ ID NO: 1)-HLA-A*02 complex presented on antigen positive cancer cells (human); test: cell-based or functional assay
[2] = target: … (SEQ ID NO: 1)-HLA-A*02 complex (soluble, biotinylated) (human); test: SPR (BIAcore) or BLI (Octet) per Example 3, biotinylated pHLA immobilised, 25 C

Binder | EC50 (mel624), IFN-γ ELISPOT, activation of redirected T cells [1] [pM] | Kd [2] [nM] | t1/2 [2] [h]
ImmTAC molecule comprising a79 (SEQ ID NO: 7) and b64 (SEQ ID NO: 12) (TCR, part only; not given: anti-CD3 scFv, linker, TCR constants, part only) TCR alpha, part: GDAKTTQPNSMESNEEEPVHLPCNHSTISGTDYIHWYRQLPSQGPEYVIHGLTSNVNNRMASLAIAEDRKSSTLILHRATLRDAAVYYCILILGHSRLGNYIATFGKGTKLSVIP TCR beta, part: DGGITQSPKYLFRKEGQNVTLSCEQNLNHDAMYWYRQDPGQGLRLIYYSQIMNDEQKGDIAEGYSVSREKKESFPLTVTSAQKNPTAFYLCASSWWTGGSAPIRFGPGTRLTVT | 27.5 | 0.138 | 6.38
ImmTAC molecule comprising a109 (SEQ ID NO: 8) and b46 (SEQ ID NO: 11) (TCR, part only; not given: anti-CD3 scFv, linker, TCR constants, part only) TCR alpha, part: GDAKTTQPNSMESNEEEPVHLPCNHSTISGTDYIHWYRQLPSQGPEYVIHGLTSNVNNRMASLAIAEDRKSSTLILHRATLRDAAVYYCILILGHSRLGNYQATFGKGTKLSVIP TCR beta, part: DGGITQSPKYLFRKEGQNVTLSCEQNLNHDAMYWYRQDPGQGLRLIYYSQIMGDEQKGDIAEGYSVSREKKESFPLTVTSAQKNPTAFYLCASSWWTGGSAPIRFGPGTRLTVT | 60.1 | 0.17 | 7.31
ImmTAC molecule comprising a79 (SEQ ID NO: 7) and b66 (SEQ ID NO: 23) (TCR, part only; not given: anti-CD3 scFv, linker, TCR constants, part only) TCR alpha, part: GDAKTTQPNSMESNEEEPVHLPCNHSTISGTDYIHWYRQLPSQGPEYVIHGLTSNVNNRMASLAIAEDRKSSTLILHRATLRDAAVYYCILILGHSRLGNYIATFGKGTKLSVIP TCR beta, part: DGGITQSPKYLFRKEGQNVTLSCEQNLNHDAMYWYRQDPGQGLRLIYYSQIMGDEQKGDIAEGYSVSREKKESFPLTVTSAQKNPTAFYLCASSPWTGGSAPIRFGPGTRLTVT | 16.7 | 0.089 | 9.16
ImmTAC molecule comprising a79 (SEQ ID NO: 7) and b63 (SEQ ID NO: 22) (TCR, part only; not given: anti-CD3 scFv, linker, TCR constants, part only) TCR alpha, part: GDAKTTQPNSMESNEEEPVHLPCNHSTISGTDYIHWYRQLPSQGPEYVIHGLTSNVNNRMASLAIAEDRKSSTLILHRATLRDAAVYYCILILGHSRLGNYIATFGKGTKLSVIP TCR beta, part: DGGITQSPKYLFRKEGQNVTLSCEQNLNHDAMYWYRQDPGQGLRLIYYSQIVGDEQKGDIAEGYSVSREKKESFPLTVTSAQKNPTAFYLCASSWWTGGSAPIRFGPGTRLTVT | 22.9 | 0.079 | 10.8
ImmTAC molecule comprising a79 (SEQ ID NO: 7) and b73 (SEQ ID NO: 16) (TCR, part only; not given: anti-CD3 scFv, linker, TCR constants, part only) TCR alpha, part: GDAKTTQPNSMESNEEEPVHLPCNHSTISGTDYIHWYRQLPSQGPEYVIHGLTSNVNNRMASLAIAEDRKSSTLILHRATLRDAAVYYCILILGHSRLGNYIATFGKGTKLSVIP TCR beta, part: DGGITQSPKYLFRKEGQNVTLSCEQNLNHDAMYWYRQDPGQGLRLIYYSQIMGDEQKGDIAEGYSVSREKKESFPLTVTSAQKNPTAFYLCASSWWTGGAAPISFGPGTRLTVT | 23.1 | 0.132 | 4.6
ImmTAC molecule comprising a28 (SEQ ID NO: 6) and b75 (SEQ ID NO: 20) (TCR, part only; not given: anti-CD3 scFv, linker, TCR constants, part only) TCR alpha, part: GDAKTTQPNSMESNEEEPVHLPCNHSTISGTDYIHWYRQLPSQGPEYVIHGLTSNVNNRMASLAIAEDRKSSTLILHRATLRDAAVYYCILILGHSRAGNYIATFGKGTKLSVIP TCR beta, part: DGGITQSPKYLFRKEGQNVTLSCEQNLNHDAMYWYRQDPGQGLRLIYYSQIMGDEQKGDIAEGYSVSREKKESFPLTVTSAQKNPTAFYLCASSWWTGGSAPISFGPGTRLTVT | 13.9 | 0.214 | 5.1
ImmTAC molecule comprising a28 (SEQ ID NO: 6) and b57 (SEQ ID NO: 10) (TCR, part only; not given: anti-CD3 scFv, linker, TCR constants, part only) TCR alpha, part: GDAKTTQPNSMESNEEEPVHLPCNHSTISGTDYIHWYRQLPSQGPEYVIHGLTSNVNNRMASLAIAEDRKSSTLILHRATLRDAAVYYCILILGHSRAGNYIATFGKGTKLSVIP TCR beta, part: DGGITQSPKYLFRKEGQNVTLSCEQNLNHDAMYWYRQDPGQGLRLIYYSQIMGDEQKGDIAEGYSVSREKKESFPLTVTSAQKNPTAFYLCASSWWTSGASPISFGPGTRLTVT | 13.4 | 0.083 | 8.3
ImmTAC molecule comprising a28 (SEQ ID NO: 6) and b58 (SEQ ID NO: 21) (TCR, part only; not given: anti-CD3 scFv, linker, TCR constants, part only) TCR alpha, part: GDAKTTQPNSMESNEEEPVHLPCNHSTISGTDYIHWYRQLPSQGPEYVIHGLTSNVNNRMASLAIAEDRKSSTLILHRATLRDAAVYYCILILGHSRAGNYIATFGKGTKLSVIP TCR beta, part: DGGITQSPKYLFRKEGQNVTLSCEQNLNHDAMYWYRQDPGQGLRLIYYSQIMGDEQKGDIAEGYSVSREKKESFPLTVTSAQKNPTAFYLCASSWWTGGSSPISFGPGTRLTVT | 12 | 0.079 | 8.9
ImmTAC molecule comprising a28 (SEQ ID NO: 6) and b60 (SEQ ID NO: 19) (TCR, part only; not given: anti-CD3 scFv, linker, TCR constants, part only) TCR alpha, part: GDAKTTQPNSMESNEEEPVHLPCNHSTISGTDYIHWYRQLPSQGPEYVIHGLTSNVNNRMASLAIAEDRKSSTLILHRATLRDAAVYYCILILGHSRAGNYIATFGKGTKLSVIP TCR beta, part: DGGITQSPKYLFRKEGQNVTLSCEQNLNHDAMYWYRQDPGQGLRLIYYSQIMGDEQKGDIAEGYSVSREKKESFPLTVTSAQKNPTAFYLCASSWWTGGASEISFGPGTRLTVT | 31.7 | 0.261 | 2.8
ImmTAC molecule comprising a79 (SEQ ID NO: 7) and b71 (SEQ ID NO: 15) (TCR, part only; not given: anti-CD3 scFv, linker, TCR constants, part only) TCR alpha, part: GDAKTTQPNSMESNEEEPVHLPCNHSTISGTDYIHWYRQLPSQGPEYVIHGLTSNVNNRMASLAIAEDRKSSTLILHRATLRDAAVYYCILILGHSRLGNYIATFGKGTKLSVIP TCR beta, part: DGGITQSPKYLFRKEGQNVTLSCEQNLNHDAMYWYRQDPGQGLRLIYYSQIMGDEQKGDIAEGYSVSREKKESFPLTVTSAQKNPTAFYLCASSWWTGGSAPIYFGPGTRLTVT | 31.8 | 0.087 | 14.9
ImmTAC molecule comprising a28 (SEQ ID NO: 6) and b74 (SEQ ID NO: 17) (TCR, part only; not given: anti-CD3 scFv, linker, TCR constants, part only) TCR alpha, part: GDAKTTQPNSMESNEEEPVHLPCNHSTISGTDYIHWYRQLPSQGPEYVIHGLTSNVNNRMASLAIAEDRKSSTLILHRATLRDAAVYYCILILGHSRAGNYIATFGKGTKLSVIP TCR beta, part: DGGITQSPKYLFRKEGQNVTLSCEQNLNHDAMYWYRQDPGQGLRLIYYSQIMGDEQKGDIAEGYSVSREKKESFPLTVTSAQKNPTAFYLCASSWWTGGASPIRFGPGTRLTVT | 24.3 | 0.182 | 3.7

Further lines, results first:

EC50 (mel624), IFN-γ ELISPOT, activation of redirected T cells [1] [pM] | Kd [2] [nM] | t1/2 [2] [h] | Binder
10.6 | 0.0231 | 28.7 | ImmTAC molecule comprising a79 (SEQ ID NO: 7) and b58 (SEQ ID NO: 21) (TCR, part only; not given: anti-CD3 scFv, linker, TCR constants, part only) TCR alpha, part: GDAKTTQPNSMESNEEEPVHLPCNHSTISGTDYIHWYRQLPSQGPEYVIHGLTSNVNNRMASLAIAEDRKSSTLILHRATLRDAAVYYCILILGHSRLGNYIATFGKGTKLSVIP TCR beta, part: DGGITQSPKYLFRKEGQNVTLSCEQNLNHDAMYWYRQDPGQGLRLIYYSQIMGDEQKGDIAEGYSVSREKKESFPLTVTSAQKNPTAFYLCASSWWTGGSSPISFGPGTRLTVT
26.3 | 0.047 | 12.7 | ImmTAC molecule comprising a79 (SEQ ID NO: 7) and b67 (SEQ ID NO: 13) (TCR, part only; not given: anti-CD3 scFv, linker, TCR constants, part only) TCR alpha, part: GDAKTTQPNSMESNEEEPVHLPCNHSTISGTDYIHWYRQLPSQGPEYVIHGLTSNVNNRMASLAIAEDRKSSTLILHRATLRDAAVYYCILILGHSRLGNYIATFGKGTKLSVIP TCR beta, part: DGGITQSPKYLFRKEGQNVTLSCEQNLNHDAMYWYRQDPGQGLRLIYYSQIMGDEQKGDIAEGYSVSREKKESFPLTVTSAQKNPTAFYLCASSWWTSGSAPIRFGPGTRLTVT
39.8 | 0.052 | 20.4 | ImmTAC molecule comprising a79 (SEQ ID NO: 7) and b69 (SEQ ID NO: 14) (TCR, part only; not given: anti-CD3 scFv, linker, TCR constants, part only) TCR alpha, part: GDAKTTQPNSMESNEEEPVHLPCNHSTISGTDYIHWYRQLPSQGPEYVIHGLTSNVNNRMASLAIAEDRKSSTLILHRATLRDAAVYYCILILGHSRLGNYIATFGKGTKLSVIP TCR beta, part: DGGITQSPKYLFRKEGQNVTLSCEQNLNHDAMYWYRQDPGQGLRLIYYSQIMGDEQKGDIAEGYSVSREKKESFPLTVTSAQKNPTAFYLCASSWWTGGSAEIRFGPGTRLTVT
17.2 | 0.0118 | 58.3 | ImmTAC molecule comprising a79 (SEQ ID NO: 7) and b76 (SEQ ID NO: 24) (TCR, part only; not given: anti-CD3 scFv, linker, TCR constants, part only) TCR alpha, part: GDAKTTQPNSMESNEEEPVHLPCNHSTISGTDYIHWYRQLPSQGPEYVIHGLTSNVNNRMASLAIAEDRKSSTLILHRATLRDAAVYYCILILGHSRLGNYIATFGKGTKLSVIP TCR beta, part: DGGITQSPKYLFRKEGQNVTLSCEQNLNHDAMYWYRQDPGQGLRLIYYSQIMGDEQKGDIAEGYSVSREKKESFPLTVTSAQKNPTAFYLCASSWWTGGSSPIRFGPGTRLTVT
13.8 | 0.0779 | 8.6 | ImmTAC molecule comprising a79 (SEQ ID NO: 7) and b77 (SEQ ID NO: 18) (TCR, part only; not given: anti-CD3 scFv, linker, TCR constants, part only) TCR alpha, part: GDAKTTQPNSMESNEEEPVHLPCNHSTISGTDYIHWYRQLPSQGPEYVIHGLTSNVNNRMASLAIAEDRKSSTLILHRATLRDAAVYYCILILGHSRLGNYIATFGKGTKLSVIP TCR beta, part: DGGITQSPKYLFRKEGQNVTLSCEQNLNHDAMYWYRQDPGQGLRLIYYSQIMGDEQKGDIAEGYSVSREKKESFPLTVTSAQKNPTAFYLCASSWWTGGAAPIRFGPGTRLTVT
23.6 | 0.0577 | 16.9 | ImmTAC molecule comprising a79 (SEQ ID NO: 7) and b75 (SEQ ID NO: 20) (TCR, part only; not given: anti-CD3 scFv, linker, TCR constants, part only) TCR alpha, part: GDAKTTQPNSMESNEEEPVHLPCNHSTISGTDYIHWYRQLPSQGPEYVIHGLTSNVNNRMASLAIAEDRKSSTLILHRATLRDAAVYYCILILGHSRLGNYIATFGKGTKLSVIP TCR beta, part: DGGITQSPKYLFRKEGQNVTLSCEQNLNHDAMYWYRQDPGQGLRLIYYSQIMGDEQKGDIAEGYSVSREKKESFPLTVTSAQKNPTAFYLCASSWWTGGSAPISFGPGTRLTVT
